Assay [1] has as its target T1, secreted HS6ST2 (sHS6ST2_FLAG) (human, UniProt Q96MM7 170-605).
T1 construct: Purified from CHO supernatant on anti-FLAG gel; also called soluble HS6ST2
T1 sequence: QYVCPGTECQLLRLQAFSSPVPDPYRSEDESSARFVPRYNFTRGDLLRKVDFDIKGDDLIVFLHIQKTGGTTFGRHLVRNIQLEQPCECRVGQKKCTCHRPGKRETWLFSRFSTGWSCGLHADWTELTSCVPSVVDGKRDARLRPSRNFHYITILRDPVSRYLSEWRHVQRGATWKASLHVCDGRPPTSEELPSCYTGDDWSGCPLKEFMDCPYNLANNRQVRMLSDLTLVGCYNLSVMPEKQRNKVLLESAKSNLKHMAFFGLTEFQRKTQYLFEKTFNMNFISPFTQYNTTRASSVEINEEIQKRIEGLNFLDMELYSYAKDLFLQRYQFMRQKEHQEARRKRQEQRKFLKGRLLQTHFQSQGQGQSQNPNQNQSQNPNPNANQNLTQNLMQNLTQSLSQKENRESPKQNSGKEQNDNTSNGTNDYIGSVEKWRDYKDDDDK
As to the kind of experiment: sandwich ELISA: A6 coated at 5 µg/mL as capture, B5-biotin and C8-biotin (3 µg/mL each, mixed) as detectors.

The next assay has as its target T2, GST_HS6ST2_C1 (human, UniProt Q96MM7 454-539).
T2 construct: Expressed in E. coli BL21 (DE3); whole cell lysate blotted after SDS-PAGE; also called GST fusion of amino acids 308-393 of HS6ST2_N-short; not shown: N-terminal glutathione S-transferase (GST) of vector pGEX-6P-1, with the vector's linker
T2 sequence: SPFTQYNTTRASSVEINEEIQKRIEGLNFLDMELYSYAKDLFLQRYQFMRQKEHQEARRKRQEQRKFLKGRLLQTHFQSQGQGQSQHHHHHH
The assay is described as follows: Western blot of E. coli whole cell lysate, antibody 10 µg/mL. On the procedure: (§1) GST_HS6ST2_N, GST_HS6ST2_mid, GST_HS6ST2_C, GST_HS6ST2_C1 and GST_HS6ST2_C2 were expressed in BL21 (DE3) Competent Cells (Takara Bio), and the whole cell lysates were resolved by SDS-PAGE electrophoresis and then transferred to PVDF membranes (Immobilon-P, Millipore) and Western blotted with the anti-HS6ST2 antibodies. The anti-HS6ST2 antibodies were used at 10 μg/mL, while the secondary antibody (HRP-anti mIgG, GE Healthcare) was used as a 3000-fold dilution, and blots were detected with ECL Western Blotting Detection Reagents (GE Healthcare). As a result, the anti-HS6ST2 antibodies A1, A10, B5, B6 and C8 bound to GST_HS6ST2_C2, A6 bound to GST_HS6ST2_C1, and C10 bound to GST_HS6ST2_N.

Another assay has as its target T3, GST_HS6ST2_C2 (human, UniProt Q96MM7 525-605).
T3 construct: Expressed in E. coli BL21 (DE3); whole cell lysate blotted after SDS-PAGE; also called GST fusion of amino acids 379-459 of HS6ST2_N-short; not shown: N-terminal glutathione S-transferase (GST) of vector pGEX-6P-1, with the vector's linker
T3 sequence: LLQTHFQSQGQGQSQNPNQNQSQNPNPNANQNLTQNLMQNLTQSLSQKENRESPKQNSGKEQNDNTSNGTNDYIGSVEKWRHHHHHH
Described as above. Here is the method: as §1

Assay [2] addresses T1, secreted HS6ST2 (sHS6ST2_FLAG). The assay is described as follows: flow cytometry: sHS6ST2_FLAG (50 µg/mL) held on heparan sulfate of DG44 cells, detected with C8 as primary antibody. Here is the method:
Each anti-HS6ST2 antibody or mouse IgG1 (mIgG1, BD Biosciences Pharmingen) as a negative control was added to a final concentration of 2 μg/mL into 96-well U-bottom plates (Becton Dickinson) containing 5×10⁴ cells suspended in PBS (FACS buffer) supplemented with 0.5% bovine serum albumin and 0.1% NaN₃. After reaction on ice for 1 hour, the cells were washed with FACS buffer. Then, an FITC-labeled anti-mouse antibody (Goat F(ab′)₂ Fragment Anti-mouse IgG (H+L)-FITC, Beckman Coulter) was added as a secondary antibody, and the mixture was reacted on ice for 1 hour. The cells were washed with FACS buffer, and then suspended in FACS buffer containing 10 μg/mL propidium iodide (PI) (Sigma) and assayed by a flow cytometer (FACS Calibur, Becton Dickinson). The assay data were analyzed by CELLQuest software (Becton Dickinson), and the geo-mean of FITC fluorescent intensity was calculated for the PI-negative population of viable cells.
Then, binding of soluble HS6ST2 (sHS6ST2_FLAG) to DG44 cells was evaluated. DG44 cells were enzymatically treated, and then reacted with sHS6ST2_FLAG prepared at 50 μg/mL in FACS buffer at 4° C. for 3 hours. After washing, the cells were analyzed by flow cytometry in the same manner as in Example 3. The anti-HS6ST2 antibody C8 was used as a primary antibody and mIgG1 (BD Biosciences Pharmingen) was used as a negative control. […]
(In general: A flow cytometer gives signals particle by particle.)

The results in this text go back to US20110262929A1 (FORERUNNER PHARMA RESEARCH, published 2011).

Substitutions are numbered along the chain they refer to.

B1: anti-HS6ST2 antibody A6 (antibody, mouse IgG1, V domains shown)
VH: EVQLQQSGAELVRSGASVKLSCTASGFNIKDYYMHWVKQRPEQGLEWIGWIDPENDDTEYAPKFQGRATMTADTSSNTAYLQLSSLTSEDTAVYYCNAGYYGSGFAYWGQGTLVTVSA
VL: DIVMTQSPSSLTVTAGEKVTMRCKSSQSLLNSGNQKNYLTWYQQKPGQPPRLLIYWASIRESGVPDRFTGSGSGTDFTLTISSVQAEDLAVYYCQNDYSYPLTFGTGTKLELK
notes: also called clone A6
Take B1: the binding result (in assay [1]; in the assay with GST_HS6ST2_C1) was “binds” in each case.

B2: anti-HS6ST2 antibody C8 (antibody, mouse IgG1, V domains shown)
VH: B1 VH with E54D, R67K, Y100N, Y101G, G102N, S103Y, G104W
VL: DVVMTQTPLSLPVSLGDQASISCRSSQSLVHSNGNTYLHWNLQKPGQSPKLLIYKVSNRFSGVPDRFSGSGSGTDFTLKISRVEAEDLGVYFCSQTTLVPYTFGGGTKLEIK
notes: also called clone C8; C8-biotin
Take B2: the binding result (in the assay with GST_HS6ST2_C2; in assay [2]) was “binds” throughout.
